Holding throughout (test): SEC; 3x molar excess of Rab mixed with C9orf72, overnight on ice with 20 mM EDTA; gel filtration in 20 mM Tris pH 8.0, 300 mM NaCl, 2 mM DTT, 20 mM EDTA (Superdex75 in the methods, Superdex 200 10/30 in the legend); 21 uM C9orf72 and 48 uM Rab per run; fractions checked by SDS-PAGE and western blot
On the technique in general: SEC sorts molecules by how far they enter the pores of the column.

One data set concerns the target T1, Rab5A (UniProt P20339 1-215).
T1 construct: Rab5A, amplified from its cDNA clone and put into pGEX-6p-1 (BamHI/XhoI); about 25 kDa after tag cleavage; source: E. coli BL21CodonPlus(DE3)RIPL, purified (GST Sepharose 4B, PreScission cleavage, second GST Sepharose pass); not shown: GST, N-terminal, cleaved
T1 sequence (looked up): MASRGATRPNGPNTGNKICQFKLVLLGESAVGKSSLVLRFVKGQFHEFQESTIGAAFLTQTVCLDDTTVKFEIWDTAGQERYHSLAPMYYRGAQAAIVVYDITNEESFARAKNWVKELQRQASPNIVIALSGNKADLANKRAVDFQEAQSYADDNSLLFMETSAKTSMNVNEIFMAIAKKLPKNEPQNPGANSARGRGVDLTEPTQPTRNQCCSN
The note with it: both partners purified.

Data set [1] concerns the molecule itself.
The target of a further data set is T2, Rab11A (UniProt P62491 1-216).
T2 construct: Rab11A, amplified from its cDNA clone and put into pGEX-6p-1 (BamHI/XhoI); about 25 kDa after tag cleavage; source: E. coli BL21CodonPlus(DE3)RIPL, purified (GST Sepharose 4B, PreScission cleavage, second GST Sepharose pass); not shown: GST, N-terminal, cleaved
T2 sequence (looked up): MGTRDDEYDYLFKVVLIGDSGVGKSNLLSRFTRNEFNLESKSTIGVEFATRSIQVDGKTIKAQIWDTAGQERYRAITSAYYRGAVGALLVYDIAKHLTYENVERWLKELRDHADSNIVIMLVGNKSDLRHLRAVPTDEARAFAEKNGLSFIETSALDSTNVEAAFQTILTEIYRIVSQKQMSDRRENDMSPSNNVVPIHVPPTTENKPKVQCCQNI
The conditions noted are these: both partners purified.

B1: C9orf72 (N-terminal His6, pOPINF-C9orf72) (natural protein, human, UniProt Q96LT7 1-481, looked up)
chain: MSTLCPPPSPAVAKTEIALSGKSPLLAATFAYWDNILGPRVRHIWAPKTEQVLLSDGEITFLANHTLNGEILRNAESGAIDVKFFVLSEKGVIIVSLIFDGNWNGDRSTYGLSIILPQTELSFYLPLHRVCVDRLTHIIRKGRIWMHKERQENVQKIILEGTERMEDQGQSIIPMLTGEVIPVMELLSSMKSHSVPEEIDIADTVLNDDDIGDSCHEGFLLNAISSHLQTCGCSVVVGSSAEKVNKIVRTLCLFLTPAERKCSRLCEAESSFKYESGLFVQGLLKDSTGSFVLPFRQVMYAPYPTTHIDVDVNTVKQMPPCHEHIYNQRRYMRSELTAFWRATSEEDMAQDTIIYTDESFTPDLNIFQDVLHRDTLVKAFLDQVFQLKPGLSLRSTFLAQFLLVLHRKALTLIKYIEDDTQKGKKPFKSLRNLKIDLDLTAEGDLNIIMALAEKIKPGLHSFIFGRPFYTSVQERDVLMTF
notes: the homology model counts residues up to 481; No tag cleavage is described; also called His6-C9orf72; recombinant C9orf72; source: Sf9, baculovirus, purified (HisTrap HP, Superdex200 size-exclusion chromatography); not shown: His6, N-terminal, kept
The stoichiometry N is a count of units in the complex or per binding partner. Regarding B1, the “stoichiometry N” value with Rab5A and in the data set with Rab11A was 1 throughout. The binding result in data set [1] was “binds”.

(Values after article PMC6195791, “C9orf72, a protein associated with amyotrophic lateral sclerosis (ALS) is a guanine nucleotide exchange factor” (PeerJ, 2018).)
